Data as given in patent US8906356 (MIT, dated 2014).
Residue numbers refer to the chain shown, from its start. In names and notes the source's numbering stands.

T1: IL-2 receptor (IL-2Rα, IL-2Rβ and IL-2Rγ) on cells (human, UniProt P01589 22-272; P14784 27-551; P31785 23-369)
T1 sequence (looked up) 1: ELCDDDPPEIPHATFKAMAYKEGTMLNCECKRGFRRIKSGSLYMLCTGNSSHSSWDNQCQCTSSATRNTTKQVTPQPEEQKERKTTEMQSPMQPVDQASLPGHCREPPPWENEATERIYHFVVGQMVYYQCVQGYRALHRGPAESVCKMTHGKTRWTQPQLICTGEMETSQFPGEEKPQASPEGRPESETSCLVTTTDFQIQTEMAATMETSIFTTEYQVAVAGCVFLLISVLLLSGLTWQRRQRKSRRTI
T1 sequence (looked up) 2: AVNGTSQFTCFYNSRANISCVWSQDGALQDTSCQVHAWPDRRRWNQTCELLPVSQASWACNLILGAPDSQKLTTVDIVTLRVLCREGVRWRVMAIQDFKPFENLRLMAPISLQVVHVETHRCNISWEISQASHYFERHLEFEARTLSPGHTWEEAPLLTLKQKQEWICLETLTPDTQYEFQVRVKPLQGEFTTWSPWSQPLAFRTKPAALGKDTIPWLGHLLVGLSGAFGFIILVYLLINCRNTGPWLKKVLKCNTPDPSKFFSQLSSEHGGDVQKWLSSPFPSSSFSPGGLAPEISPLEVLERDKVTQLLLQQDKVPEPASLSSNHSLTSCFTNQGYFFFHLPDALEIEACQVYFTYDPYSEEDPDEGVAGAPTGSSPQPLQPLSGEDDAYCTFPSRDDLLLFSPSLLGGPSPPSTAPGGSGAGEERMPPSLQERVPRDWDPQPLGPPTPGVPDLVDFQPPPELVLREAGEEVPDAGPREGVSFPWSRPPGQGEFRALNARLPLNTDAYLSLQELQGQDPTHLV
T1 sequence (looked up) 3: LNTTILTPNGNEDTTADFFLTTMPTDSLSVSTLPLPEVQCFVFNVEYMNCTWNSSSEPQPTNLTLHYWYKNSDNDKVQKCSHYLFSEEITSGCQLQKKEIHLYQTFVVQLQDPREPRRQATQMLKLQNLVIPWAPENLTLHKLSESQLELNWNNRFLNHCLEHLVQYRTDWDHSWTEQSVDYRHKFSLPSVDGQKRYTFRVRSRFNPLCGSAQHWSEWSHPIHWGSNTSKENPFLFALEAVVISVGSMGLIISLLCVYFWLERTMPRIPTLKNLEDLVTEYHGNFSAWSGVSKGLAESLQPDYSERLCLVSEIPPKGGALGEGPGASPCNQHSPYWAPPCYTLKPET

T2: IL-2 receptor α subunit (IL-2Rα, CD25) on Kit225 cells (human, UniProt P01589 22-272)
T2 construct: whole, on cells; Kit225 cells express all three IL-2 receptor subunits, with IL-2Rα in ~10 fold excess; also called p55
T2 sequence (looked up): T1 sequence (looked up) 1

B1: Q126T (2-4 IL-2 with a Q126T point mutation) (ligand)
chain: APTSSSTKKTQLQLEHLLLDLQMILNGISNHKNPRLARMLTFKFYMPEKATELKHLQCLEEELKPLEEALRLAPSKNFHLRPRDLISDVNVIVLELKGSETTFMCEYADETATIVEFLNRWITFCTSIISTLT
B2: Q126T/V91R double mutant (ligand)
chain: B1 chain with V91R
B3: V91R (2-4 IL-2 with a V91R point mutation) (ligand)
chain: B1 chain with V91R, T126Q
B4: 2-4 IL-2 (engineered mutant of human IL-2 with high affinity for IL-2Rα) (ligand)
chain: B1 chain with T126Q

Experiments:
[1] = biological target: T1, IL-2 receptor (IL-2Rα, IL-2Rβ and …); assay: cell-based or functional assay
[2] = biological target: T2, IL-2 receptor α subunit (IL-2Rα, CD25) …; assay: cell surface titration on Kit225 cells, flow cytometry with anti-FLAG detection
Method: Determination of IL-2Rα binding affinities of IL-2 mutants. […] At low IL-2 mutant concentrations, the total volume was increased to maintain an excess number of IL-2 mutant molecules over the number of IL-2Rα. After incubation, cells were kept on ice and stained with mouse anti-FLAG monoclonal antibody M2 (Sigma Aldrich, St. Louis, Mo.), followed by an Alexa Fluor 488 conjugated goat anti-mouse antibody (Invitrogen, Carlsbad, Calif.), to detect cell-surface bound protein. The mean single-cell fluorescence was measured, and the dissociation constant (K_D) and the 95% confidence interval were determined as previously described, using the following equation: Fobs = cL_0/(K_D + L_0), where $Fobs$ is the background-corrected mean fluorescence, L_0 is the initial concentration of the protein being measured, and c is the proportionality constant.
The IL-2Rα binding affinity of the IL-2 mutants was measured in using Kit225 cells, a human T cell line that is dependent on IL-2 for growth. Kit225 constitutively expresses all three subunits of the IL-2 receptor, with IL-2Rα in ~10 fold excess. The IL-2Rα binding affinity was measured using cell surface titrations on Kit225.

[3] = biological target: T2, IL-2 receptor α subunit (IL-2Rα, CD25) …; assay: cell surface titration on Kit225 cells (method not restated for the double mutant)

Binder	IC50 of inhibition of STAT5 phosphorylation in Kit225 cells with 25 pM wild type IL-2 [1]	Kd [2]	Kd [3]
B1	1.9 nM	0.109 nM	
B2			2 nM
B3	2.4 nM	0.119 nM	
B4		0.199 nM	
